Measured values as given in patent US20080072349A1 (PIONEER HI BRED INTERNATIONAL, published 2008).

Columns and labels:
Experiment in all cases: cell-based or functional assay
[1] = target: T1, purified deactivated Arabidopsis Rubisco (Ribulose-1,5-bisphosphate carboxylase/oxygenase) (Arabidopsis, UniProt O03042 3-479; P10795 55-180)
[2] = target: T1, purified deactivated Arabidopsis …; remark: listed apart in the source
[3] = target: T1, purified deactivated Arabidopsis …; remark: listed apart in the source

| Thermostability (%) [1] | Activation of deactivated Rubisco assay, T.S 45° C./25° C. [2] | Activation of deactivated Rubisco assay, T.S 45 min at 40° C./15 min at 25° C. [2] | Rubisco activation under catalytic conditions assay, T.S 40° C./25° C. [2] | activation state of Rubisco at 40° C. relative to reactions at 25° C. [3] | Binder |
| --- | --- | --- | --- | --- | --- |
| 82% | 52% | 54% | 77% |  | Rubisco Activase derived polypeptide 183H12 (enzyme) MVKEDKQTDGDRWRGLAYDTSDDQQDITRGKGMVDSVFQAPMGTGTHHAVLSSYEYVSQGLRQYNLDNMMDGFYIAPAFMDKLVVHITKNFLTLPNIKVPLILGIWGGKGQGKSFQCELVMAKMGINPIMMSAGELESGNAGEPAKLIRQRYREAADLIKKGKMCCLFINDLDAGAGRMGGTTQYTVNNQMVNATLMNIADNPTNVQLPGMYNKEENARVPIICTGNDFSTLYAPLIRDGRMEKFYWAPTREDRIGVCKGIFRTDKIKDEDIVRLVDQFPGQSIDFFGALRARVYDDEVRKFVESLGVEKIGKRLVNSREGPPVFEQPEMTYEKLMEYGNMLVMEQENVKRVQLAETYLSQAALGDANADAIGRGTFYGKTEEKEPSKLE |
| 103% | 92% | 88% | 97% |  | Rubisco Activase derived polypeptide 383A12 (enzyme) MVKEDKQTDGDRWRGLAYDTSDDQQDITRGKGMVDSVFQAPMGTGTHHAVLSSYEYVSQGLRQYNLDNMMDGFYIAPAFMDKLVVHITKNFLTLPNIKVPLILGIWGGKGQGKSFQCELVMAKMGINPIMMSAGELESGNAGEPAKLIRQRYREAADLIKKGKMCCLLINDLDAGAGRMGGTTQYTVNNQMVNATLMNIADNPTNVQLPGMYNKEENARVPIICTGNDFSTLYAPLIRDGRMEKFYWAPTREDRIGICKGIFRTDKIKDEDIVRLVDQFPGQSIDFFGALRARVYDDEVRKFVESLGVENIGKRLVNSREGPPVFEQPEMTYEKLMEYGNMLVMEQENVKRVQLAETYLSQAALGDANADAIGRGTFYGKTEEKEPSKLE |
| 90% | 86% | 85% | 93% |  | Rubisco Activase derived polypeptide 382D8 (enzyme) MVKEDKQTDGDRWRGLAYDTSDDQQDITRGKGMVDSVFQAPMGTGTHHAVLSSYEYVSQGLRQYNLDNMMDGFYIAPAFMDKLVVHITKNFLTLPNIKVPLILGIWGGKGQGKSFQCELVMAKMGINPIMVSAGELESGNAGEPAKLIRQRYREAADLIKKGKMCCLFINDLDAGAGRMGGTTQYTVNNQMVNATLMNIADNPTNVQLPGMYNKEENARVPIICTGNDFSTLYAPLIRDGRMEKFYWAPTREDRIGICKGIFRTDKIKDEDIVTLVDQFPGQSIDFFGALRARVYDDEVRKFVESLGVENIGKRLVNSREGPPVFEQPEMTYEKLMEYGNMLVMEQENVKRVQLAETYLSQAALGDANADAIGRGTFYGKTEEKEPSKLE |
| 97% |  |  |  |  | Rubisco Activase derived polypeptide 126H4 (enzyme) MVKEDKQTDGDRWRGLAYDTSDDQQDITRGKGMVDSVFQAPMGTGTHHAVLSSYEYVSQGLRQYNLDNMMDGFYIAPAFMDKLVVHITKNFLTLPNIKVPLILGIWGGKGQGKSFQCELVMAKMGINPIRMSAGELESGNAGEPAKLIRQRYREAADLIKKGKMCCLFINDLDAGAGRMGGTTQYTVNNQMVNATLMNIADNPTNVQLPGMYNKEENARVPIICTGNDFSTLYAPLIRDGRMEKFYWAPTREDRIGVCKGIFRTDKIKDEDIVTLVDQFPGQSIDFFGALRARVYDDEVRKFVESLGVEKIGKRLVNSREGPPVFEQPEMTYEKLMEYGNMLVMEQENVKRVQLAETYLSQAALGDANADAIGRGTFYGKTEEKEPSKLE |
| 66% | 50% | 32% | 67% | 70% | wild type Rubisco Activase (Arabidopsis, short form RCA1) (enzyme) MVKEDKQTDGDRWRGLAYDTSDDQQDITRGKGMVDSVFQAPMGTGTHHAVLSSYEYVSQGLRQYNLDNMMDGFYIAPAFMDKLVVHITKNFLTLPNIKVPLILGIWGGKGQGKSFQCELVMAKMGINPIMMSAGELESGNAGEPAKLIRQRYREAADLIKKGKMCCLFINDLDAGAGRMGGTTQYTVNNQMVNATLMNIADNPTNVQLPGMYNKEENARVPIICTGNDFSTLYAPLIRDGRMEKFYWAPTREDRIGVCKGIFRTDKIKDEDIVTLVDQFPGQSIDFFGALRARVYDDEVRKFVESLGVEKIGKRLVNSREGPPVFEQPEMTYEKLMEYGNMLVMEQENVKRVQLAETYLSQAALGDANADAIGRGTFYGKTEEKEPSKLE |
| 84% |  |  |  |  | Rubisco Activase derived polypeptide 184B2 (enzyme) MVKEDKQTDGDRWRGLAYDTSDDQQDITRGKGMVDSVFQAPMGTGTHHAVLSSYEYVSQGLRQYNLDNMMDGFYIAPAFMDKLVVHITKNFLTLPNIKVPLILGIWGGKGQGKSFQCELVMAKMGINPIMMSAGELESGNAGEPAKLIRQRYREAADLIKKGKMCCLFINDLDAGAGRMGGTTQYTVNNQMVNATLMNIADNPTNVQLPGMYNKEENARVPIICTGNDFSTLYAPLIRDGRMEKFYWAPTREDRIGVCKGIFRTDKIKDEDIVTLVDQFPGQSIDFFGALRARVYDDEVRKFVESLGVENIGKRLVNSREGPPVFEQPEMTYEKLMEYGNMLVMEQENVKRVQLAETYLSQAALGDANADAIGRGTFYGKTEEKEPSKLE |
| 98% | 84% | 92% | 83% |  | Rubisco Activase derived polypeptide 301C7 (enzyme) MVKEDKQTDGDRWRGLAYDTSDDQQDITRGKGMVDSVFQAPMGTGTHHAVLSSYEYVSQGLRQYNLDNMMDGFYIAPAFMDKLVVHITKNFLTLPNIKVPLILGIWGGKGQGKSFQCELVMAKMGINPIMMSAGELESGNAGEPAKLIRQRYREAADLIKKGKMCCLLINDLDAGAGRMGGTTQYTVNNQMVNATLMNIADNPTNVQLPGMYNKEENARVPIICTGNDFSTLYAPLIRDGRMEKFYWAPTREDRIGICKGIFRTDKIKDEDIVTLVDQFPGQSIDFFGALRARVYDDEVRKFVESLGVENIGKRLVNSREGPPVFEQPEMTYEKLMEYGNMLVMEQENVKRVQLAETYLSQAALGDANADAIGRGTFYGKTEEKEPSKLE |
| 89% | 89% | 75% | 78% |  | Rubisco Activase derived polypeptide 301H3 (enzyme) MVKEDKQTDGDRWRGLAYDTSDDQQDITRGKGMVDSVFQAPMGTGTHHAVLSSYEYVSQGLRQYNLDNMMDGFYIAPAFMDKLVVHITKNFLTLPNIKVPLILGIWGGKGQGKSFQCELVMAKMGINPIMMSAGELESGNAGEPAKLIRQRYREAADLIKKGKMCCLFINDLDAGAGRMGGTTQYTVNNQMVNATLMNIADNPTNVQLPGMYNKEENARVPIICTGNDFSTLYAPLIRDGRMEKFYWAPTREDRIGICKGIFRTDKIKDEDIVRLVDQFPGQSIDFFGALRARVYDDEVRKFVESLGVENIGKRLVNSREGPPVFEQPEMTYEKLMEYGNMLVMEQENVKRVQLAETYLSQAALGDANADAIGRGTFYGKTEEKEPSKLE |
| 88% | 63% | 66% | 82% |  | Rubisco Activase derived polypeptide 079H6 (enzyme) MVKEDKQTDGDRWRGLAYDTSDDQQDITRGKGMVDSVFQAPTGTGTHHAVLSSYEYVSQGLRQYNLDNMMDGFYIAPAFMDKLVVHITKNFLTLPNIKVPLILGIWGGKGQGKSFQCELVMAKMGINPIMISAGELESGNAGEPAKLIRQRYREAADLIKKGKMCCLFINDLDAGAGRMGGTTQYTVNNQMVNATLMNIADNPTNVQLPGMYNKEENARVPIICTGNDFSTLYAPLIRDGRMEKFYWAPTREDRIGVCKGIFRTDKIKDEDIVTLVDQFPGQSIDFFGALRAKVYDDEVRKFVESLGVEKIGKRLVNSREGPPVFEQPEMTYEKLMEYGNMLVMEQENVKRVQLAETYLSQAALGDANADAIGRGTFYGKTEEKEPSKLE |
| 92% | 58% | 65% | 74% |  | Rubisco Activase derived polypeptide 214A4 (enzyme) MVKEDKQTDGDRWRGLAYDTSDDQQDITRGKGMVDSVFQAPTGTGTHHAVLSSYEYVSQGLRQYNLDNMMDGFYIAPAFMDKLVVHITKNFLTLPNIKVPLILGIWGGKGQGKSFQCELVMAKMGINPIMMSAGELESGNAGEPAKLIRQRYREAADLIKKGKMCCLFINDLDAGAGRMGGTTQYTVNNQMVNATLMNIADNPTNVQLPGMYNKEENARVPIICTGNDFSTLYAPLIRDGRMEKFYWAPTREDRIGVCKGIFRTDKIKDEDIVRLVDQFPGQSIDFFGALRARVYDDEVRKFVESLGVEKIGKRLVNSREGPPVFEQPEMTYEKLMEYGNMLVMEQENVKRVQLAETYLSQAALGDANADAIGRGTFYGKTEEKEPSKLE |
| 84% |  |  |  |  | Rubisco Activase derived polypeptide 182B11 (enzyme) MVKEDKQTDGDRWRGLAYDTSDDQQDITRGKGMVDSVFQAPMGTGTHHAVLSSYEYVSQGLRQYNLDNMMDGFYIAPAFMDKLVVHITKNFLTLPNIKVPLILGIWGGKGQGKSFQCELVMAKMGINPIMISAGELESGNAGEPAKLIRQRYREAADLIKKGKMCCLFINDLDAGAGRMGGTTQYTVNNQMVNATLMNIADNPTNVQLPGMYNKEENARVPIICTGNDFSTLYAPLIRDGRMEKFYWAPTREDRIGVCKGIFRTDKIKDEDIVTLVDQFPGQSIDFFGALRARVYDDEVRKFVESLGVEKIGKRLVNSREGPPVFEQPEMTYEKLMEYGNMLVMEQENVKRVQLAETYLSQAALGDANADAIGRGTFYGKTEEKEPSKLE |
